Experimental data reported in CN114028561A (JIANGSU QYUNS BIOMEDICAL CO LTD, dated 2022).

B1: QX008N(HZD8G2-57) (antibody, human IgG1, kappa, V domains shown)
VH: EVQLVESGGGLVQPGGSLRLSCAASGFSLSSYYMSWVRQAPGKGLEWVGFISYGGSAYHATWAQGRFTISKDNSKNTLYLQMNSLRAEDTAVYYCAREFRSMTYGAEWGIWGQGTLVTVSS
VL: AYQMTQSPSSVSASVGDRVTITCQASESIYDTLAWYQQKPGKAPKLLIYSASSLASGVPSRFSGSGSGTDFTLTISSLQPEDFATYYCQQGYTMPDVDKNPFGGGTKVEIKR
notes: also called 抗人TSLP单克隆抗体
B2: Tezepelumab (antibody, V domains shown)
VH: QMQLVESGGGVVQPGRSLRLSCAASGFTFRTYGMHWVRQAPGKGLEWVAVIWYDGSNKHYADSVKGRFTITRDNSKNTLNLQMNSLRAEDTAVYYCARAPQWELVHEAFDIWGQGTMVTVSS
VL: SYVLTQPPSVSVAPGQTARITCGGNNLGSKSVHWYQQKPGQAPVLVVYDDSDRPSWIPERFSGSNSGNTATLTISRGEAGDEADYYCQVWDSSSDHVVFGGGTKLTVLG

Columns and labels:
[1] = molecular target: T1, 人胸腺基质淋巴细胞生成素(Human Thymic Stromal Lymphopoietin, TSLP) (human, UniProt Q969D9 29-159); test: SPR (Biacore T200), antibody captured on Protein A chip, human TSLP as analyte, 25℃, 1:1 model, mean of three runs
T1 construct: also called 人TSLP; hTSLP

[2] = molecular target: T1, 人胸腺基质淋巴细胞生成素(Human Thymic Stromal …); test: cell-based or functional assay
食蟹猴TSLP = 食蟹猴TSLP (食蟹猴 (cynomolgus monkey), UniProt A0A7N9CAT7 29-159); test: cell-based or functional assay
天然TSLP = test: cell-based or functional assay

Chain of 食蟹猴TSLP (A0A7N9CAT7 entry or part of it): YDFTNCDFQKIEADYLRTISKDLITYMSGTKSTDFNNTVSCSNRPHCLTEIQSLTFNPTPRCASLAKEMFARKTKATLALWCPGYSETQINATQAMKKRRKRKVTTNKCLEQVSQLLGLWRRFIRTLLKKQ

Row | Binder | Kd [1] | koff [1] | kon [1] | IC50 of inhibition of human TSLP-induced STAT5 phosphorylation in SW756-STAT5-Luciferase reporter cells [2] | IC50 of inhibition of human TSLP-induced TARC (CCL17) release from human PBMC [2] | IC50 of inhibition of human TSLP-induced TARC (CCL17) release from human whole blood [2] | IC50 of inhibition of cynomolgus TSLP-induced STAT5 phosphorylation in SW756-STAT5-Luciferase reporter cells (食蟹猴TSLP) | IC50 of inhibition of natural TSLP-induced STAT5 phosphorylation in SW756-STAT5-Luciferase reporter cells (天然TSLP)
1 | B1 | 0.0175 nM | 2.99e-05 s⁻¹ | 1.74e+06 M⁻¹ s⁻¹ | 0.837 ng/mL | 77.1 ng/mL | 0.839 ng/mL | 0.889 ng/mL | 0.462 ng/mL
2 | B2 |  |  |  |  |  |  | 1.88 ng/mL | 
